Experimental findings from article PMC6589575 are described below.

The target in the experiment is His6–Drp1, full-length Drp1-short isoform. The experiment in a line: co-sedimentation.

Substance “His6–Drp1, full-length Drp1-short isoform (enzyme)” registered a percent of His6–Drp1 in the pellet (with GMP–PCP and His6–cyclin C) of 34%; a percent of His6–Drp1 in the pellet (with GMP–PCP) of 16%.
